{"source": "paper PMC11079029", "about": "“Intramolecular autoinhibition regulates the selectivity of PRPF40A tandem WW domains for proline-rich motifs” (Nature Communications, 2024)", "target": "T1, PRPF40A WW12 (tandem WW domains, residues 141–236) (Homo sapiens, UniProt O75400)", "T1 construct": "WW12 141–236, WW12long 141–248, and N-ext-WW12 56–236; 6xHis-TEV site (N, cleaved yes); made in house; host or cells: Escherichia coli BL21(DE3)", "T1 sequence (O75400 141-236)": "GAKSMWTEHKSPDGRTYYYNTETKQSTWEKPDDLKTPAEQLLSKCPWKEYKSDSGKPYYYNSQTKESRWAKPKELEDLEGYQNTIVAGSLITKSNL", "experiment": "ITC of PRPF40A WW12 with GB1-tagged proline-rich peptides and constructs", "assay_type": "binding", "conditions": "for DH: ITC binding enthalpy, as E4; for Kd: ITC as E4, read-out: Kd (mM), Individual values", "text": "PRPF40A isoform 1 sequences (N-ter 1–310, WW12short 141–223, WW12 141–236, WW12long 141–248, and N-ext-WW12 56–236) were amplified from a purchased DNA fragment (IDT) and cloned using NcoI and KpnI restriction sites into a pETM11 vector encoding 6xHis and TEV cleavage site as a N-terminal tag. SF1 (Pro A 410–468, Pro B 468–539, Pro C 539–594, Pro D 594–639, Pro BC 468–594, Pro CD 539–639, Pro BCD 468–639 and Pro ABCD 410–639) and SF3A1 (Middle Pro 364–413 and C-ter Pro 552–683) constructs were prepared in a similar manner using a pET24 vector with a 6xHis, GB1 and TEV cleavage site as N-terminal fusion cassette. 16-mer SF1 constructs (Table 1) and polyproline peptides (P6, P8, P10, P13, P16, P19, P22, P25, and P29) were cloned in the same pET24 vector with GB1 tag by direct ligation of purchased oligonucleotides (Eurofins). All peptide sequences contained N and C-terminal common residues to avoid boundary effects on binding: TEVsite-GAMSGS-peptide-SGSN. Mutants of PRPF40A WW12 and N-ext-WW12 constructs were prepared by site-directed mutagenesis. The truncated version of PRPF40A WW12 (141-217) was a gift from Dr. María Macías (IRB, Spain). All used oligonucleotides were purchased from Eurofins Genomics and are shown in Supplementary Table 6.\nResuspended cell pellets in 20 mM Tris pH 8.0, 500 mM NaCl, 10 mM imidazole, 0.5 mM TCEP, and protease inhibitors mix (SERVA) were lysed by cell disruption in a French press. Clear lysates, after centrifugation (at 18,000 g) and filtering, were loaded into Ni-NTA resin. The resin was then washed with 20 mM imidazole containing buffer, and the desired protein was eluted with 500 mM imidazole. PRPF40A constructs were then subjected to TEV protease treatment (homemade at a final concentration of ≈50 μg/ml), dialyzed overnight at 4 °C against an imidazole-free buffer, and then loaded again to Ni-NTA resin; desired digested proteins were obtained in the flow-through and wash fractions while uncleaved protein, TEV protease, and impurities remained bound to the resin. Cleaved PRPF40A proteins and GB1-tagged SF1, SF3A1, and polyproline constructs were further purified by size-exclusion chromatography on a HiLoad 16/60 Superdex 75 column (GE Healthcare) equilibrated with 20 mM sodium phosphate, pH 6.5, 100 mM NaCl and 1 mM DTT buffer. For the purification of PRPF40A WW12 in complex with SF1 peptide, cell pellets of recombinant expression for both proteins were mixed and processed together following the Ni-NTA—TEV digestion—reverse Ni-NTA—SEC-75 protocol; where the complex remained bound in a 1:1 stoichiometry throughout the whole purification (corroborated by NMR). Molecular weight of each sample was confirmed by mass spectrometry, purity was checked by PAGE-SDS, and protein concentrations were determined from the aromatic contribution to the UV absorbance spectra at 280 nm.\nExperiments were conducted on a MicroCAl PEAQ-ITC (Malvern Instruments, UK) at 25 °C in 20 mM sodium phosphate pH 6.5 and 100 mM NaCl. PRPF40A was titrated into N-terminal GB1 tagged SF1 or polyproline constructs and vice versa with similar results. Protein concentrations in the cell were around 20–40 μM, while in the syringe ranged between 200 and 500 μM. Experiments were performed at least in duplicate with injections of 1.5 μL (0.4 μL for first point) separated by 150 s delays to recover thermal power baseline and continuous stirring in the cell (750 rpm) for correct mixing. The reference cell was filled with water in all experiments. Data were processed by removing the blank experiment (using digested GB1 fusion protein) and adjusted to one-site binding model with Malvern PEAQ-ITC Analysis software (Malvern Instruments, UK).", "key": {"[1]": {"conditions": "source data of Fig. 4C,D, individual value 1"}, "[2]": {"conditions": "source data of Fig. 4C,D, individual value 2"}, "[3]": {"conditions": "source data of Fig. 4C, individual value 3"}}, "note": "Like-named read-outs stand apart in the source and are kept apart here."}
{"molecule": "SF1 Pro CD: GB1-tagged SF1 construct, residues 539–639 (protein, left off: His6, N-terminal, state not stated | GB1, N-terminal, kept) GSIPPWQQQQAAAAASPGAPQMQGNPTMVPLPPGVQPPLPPGAPPPPPPPPPGSAGMMYAPPPPPPPPMDPSNFVTMMGMGVAGMPPFGMPPAPPPPPPQN", "values": [{"measurement": "DH", "result": "-46.2 ± 3.11", "unit": "kcal/mol"}, {"measurement": "Kd", "setting": "[1]", "result": 0.00283, "unit": "mM"}, {"measurement": "Kd", "setting": "[2]", "result": 0.00432, "unit": "mM"}, {"measurement": "Kd", "setting": "[3]", "result": 0.00426, "unit": "mM"}]}
{"molecule": "SF1 Pro BCD: GB1-tagged SF1 construct, residues 468–639 (protein, left off: His6, N-terminal, state not stated | GB1, N-terminal, kept) GMMPPPPMGMMPPPPPPPSGQPPPPPSGPLPPWQQQQQQPPPPPPPSSSMASSTPLPWQQNTTTTTTSAGTGSIPPWQQQQAAAAASPGAPQMQGNPTMVPLPPGVQPPLPPGAPPPPPPPPPGSAGMMYAPPPPPPPPMDPSNFVTMMGMGVAGMPPFGMPPAPPPPPPQN", "values": [{"measurement": "DH", "result": "-65.49 ± 8.6", "unit": "kcal/mol"}, {"measurement": "Kd", "setting": "[1]", "result": 0.00293, "unit": "mM"}, {"measurement": "Kd", "setting": "[2]", "result": 0.00436, "unit": "mM"}]}
{"molecule": "SF1 Pro ABCD: GB1-tagged SF1 construct, residues 410–639 (protein, left off: His6, N-terminal, state not stated | GB1, N-terminal, kept) GHPMQHNPNGPPPPWMQPPPPPMNQGPHPPGHHGPPPMDQYLGSTPVGSGVYRLHQGKGMMPPPPMGMMPPPPPPPSGQPPPPPSGPLPPWQQQQQQPPPPPPPSSSMASSTPLPWQQNTTTTTTSAGTGSIPPWQQQQAAAAASPGAPQMQGNPTMVPLPPGVQPPLPPGAPPPPPPPPPGSAGMMYAPPPPPPPPMDPSNFVTMMGMGVAGMPPFGMPPAPPPPPPQN", "values": [{"measurement": "DH", "result": "-67.04 ± 9.68", "unit": "kcal/mol"}, {"measurement": "Kd", "setting": "[1]", "result": 0.00541, "unit": "mM"}, {"measurement": "Kd", "setting": "[2]", "result": 0.0044, "unit": "mM"}]}
{"molecule": "SF1 Pro B: GB1-tagged SF1 construct, residues 468–539 (protein, left off: His6, N-terminal, state not stated | GB1, N-terminal, kept) GMMPPPPMGMMPPPPPPPSGQPPPPPSGPLPPWQQQQQQPPPPPPPSSSMASSTPLPWQQNTTTTTTSAGTG", "values": [{"measurement": "DH", "result": "-17.3 ± 3.27", "unit": "kcal/mol"}]}
{"molecule": "SF1 Pro BC: GB1-tagged SF1 construct, residues 468–594 (protein, left off: His6, N-terminal, state not stated | GB1, N-terminal, kept) GMMPPPPMGMMPPPPPPPSGQPPPPPSGPLPPWQQQQQQPPPPPPPSSSMASSTPLPWQQNTTTTTTSAGTGSIPPWQQQQAAAAASPGAPQMQGNPTMVPLPPGVQPPLPPGAPPPPPPPPPGSAG", "values": [{"measurement": "DH", "result": "-28.99 ± 1.65", "unit": "kcal/mol"}, {"measurement": "Kd", "setting": "[1]", "result": 0.00363, "unit": "mM"}, {"measurement": "Kd", "setting": "[2]", "result": 0.00776, "unit": "mM"}, {"measurement": "Kd", "setting": "[3]", "result": 0.00911, "unit": "mM"}]}
{"molecule": "SF3A1 C-ter Pro: GB1-tagged SF3A1 construct, residues 552–683 (protein, left off: His6, N-terminal, state not stated | GB1, N-terminal, kept) EIPQQPPPPSSATNIPSSAPPITSVPRPPTMPPPVRTTVVSAVPVMPRPPMASVVRLPPGSVIAPMPPIIHAPRINVVPMPPSAPPIMAPRPPPMIVPTAFVPAPPVAPVPAPAPMPPVHPPPPMEDEPTSK", "values": [{"measurement": "DH", "result": "-68.83 ± 18.8", "unit": "kcal/mol"}, {"measurement": "Kd", "setting": "[1]", "result": 0.0238, "unit": "mM"}, {"measurement": "Kd", "setting": "[2]", "result": 0.0148, "unit": "mM"}]}
